Reference: PMC9482650, “Quantitative fragmentomics allow affinity mapping of interactomes” (Nature Communications, 2022)
Changes are numbered by the printed parent chain.

T1: ARHGAP21, Q5T5U3
T1 sequence (Q5T5U3 45-169, limits assumed, looked up): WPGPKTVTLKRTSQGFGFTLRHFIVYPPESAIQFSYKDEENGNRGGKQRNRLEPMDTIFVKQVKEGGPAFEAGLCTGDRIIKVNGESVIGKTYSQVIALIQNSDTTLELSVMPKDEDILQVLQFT

T2: HTRA3, P83110
T2 sequence (P83110 354-453, limits assumed, looked up): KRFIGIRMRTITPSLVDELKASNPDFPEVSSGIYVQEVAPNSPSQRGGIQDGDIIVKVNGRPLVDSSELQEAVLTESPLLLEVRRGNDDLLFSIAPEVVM

T3: PDZRN3_1, Q9UPQ7
T3 sequence (Q9UPQ7 244-349, limits assumed, looked up): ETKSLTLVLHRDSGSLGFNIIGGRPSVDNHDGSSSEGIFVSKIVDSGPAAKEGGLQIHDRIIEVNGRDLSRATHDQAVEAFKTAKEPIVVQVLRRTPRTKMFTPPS

T4: MPP7, Q5T2T1
T4 sequence (Q5T2T1 134-230, limits assumed, looked up): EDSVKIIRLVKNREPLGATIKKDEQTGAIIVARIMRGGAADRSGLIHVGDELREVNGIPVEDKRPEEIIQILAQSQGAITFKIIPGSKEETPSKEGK

T5: LIN7B, Q9HAP6
T5 sequence (Q9HAP6 88-185, limits assumed, looked up): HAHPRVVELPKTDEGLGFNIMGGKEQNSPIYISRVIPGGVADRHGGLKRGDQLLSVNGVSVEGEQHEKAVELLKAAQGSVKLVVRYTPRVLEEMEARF

T6: LIN7C, Q9NUP9
T6 sequence (Q9NUP9 88-185, limits assumed, looked up): T5 sequence (Q9HAP6 88-185, limits assumed, looked up) with A2S, D13E, V35I, V40I, Q65H, S79K, R89K, A96S

T7: DLG3_2, Q92796
T7 sequence (Q92796 221-321, limits assumed, looked up): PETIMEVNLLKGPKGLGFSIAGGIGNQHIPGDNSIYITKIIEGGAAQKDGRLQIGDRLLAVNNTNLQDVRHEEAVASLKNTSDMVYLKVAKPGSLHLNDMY

T8: GRIP1_3, Q9Y3R0
T8 sequence (Q9Y3R0 247-346, limits assumed, looked up): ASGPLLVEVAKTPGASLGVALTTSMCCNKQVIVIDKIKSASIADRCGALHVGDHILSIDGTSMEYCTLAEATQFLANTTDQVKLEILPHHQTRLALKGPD

T9: DFNB31_2, Q9P202
T9 sequence (Q9P202 274-371, limits assumed, looked up): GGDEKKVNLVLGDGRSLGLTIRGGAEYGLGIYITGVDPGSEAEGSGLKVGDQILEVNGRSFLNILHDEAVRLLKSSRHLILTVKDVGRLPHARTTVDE

T10: GRIP1_4, Q9Y3R0
T10 sequence (Q9Y3R0 467-571, limits assumed, looked up): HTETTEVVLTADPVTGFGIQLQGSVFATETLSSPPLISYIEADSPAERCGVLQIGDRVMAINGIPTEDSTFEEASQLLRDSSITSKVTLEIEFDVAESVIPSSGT

T11: APBA1_1, Q02410
T11 sequence (Q02410 651-752, limits assumed, looked up): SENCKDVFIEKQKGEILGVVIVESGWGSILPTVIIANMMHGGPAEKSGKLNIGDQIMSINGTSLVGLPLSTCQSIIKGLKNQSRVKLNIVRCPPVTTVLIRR


biological target: FRMPD4, Q14CM0; experiment: holdup assay; set-up: key: below the threshold = too weak to quantify, mostly under pKd 3.1 to 4; conditions: plain residues with an end cap or a label only (N-terminal biotin on a linker: ado-ado)
Sequence (Q14CM0 67-160): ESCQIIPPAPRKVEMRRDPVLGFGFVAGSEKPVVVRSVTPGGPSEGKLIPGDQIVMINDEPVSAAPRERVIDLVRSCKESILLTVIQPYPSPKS

pKd | Binder
below the threshold | SGSLKLMTTV [DACT1, Q9NYF0]
below the threshold | LKVPPEERLI [CRB2, Q5IJ48]

biological target: NHERF4_2, Q86UT5; experiment: holdup assay; set-up: key: below the threshold = too weak to quantify, mostly under pKd 3.1 to 4; conditions: plain residues with an end cap or a label only (N-terminal biotin on a linker: ado-ado)
Sequence (Q86UT5 220-308): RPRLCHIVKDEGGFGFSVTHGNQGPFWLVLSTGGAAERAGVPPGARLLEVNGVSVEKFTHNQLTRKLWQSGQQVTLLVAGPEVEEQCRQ

pKd | Binder
below the threshold | SGSLKLMTTV [DACT1, Q9NYF0]
below the threshold | LKVPPEERLI [CRB2, Q5IJ48]

biological target: T1, ARHGAP21, Q5T5U3; experiment: holdup assay; set-up: key: below the threshold = too weak to quantify, mostly under pKd 3.1 to 4; conditions: plain residues with an end cap or a label only (N-terminal biotin on a linker: ado-ado)

pKd | Binder
below the threshold | SGSLKLMTTV [DACT1, Q9NYF0]
3.89 | LKVPPEERLI [CRB2, Q5IJ48]

biological target: T2, HTRA3, P83110; experiment: holdup assay; set-up: key: below the threshold = too weak to quantify, mostly under pKd 3.1 to 4; conditions: plain residues with an end cap or a label only (N-terminal biotin on a linker: ado-ado)

pKd | Binder
below the threshold | SGSLKLMTTV [DACT1, Q9NYF0]
below the threshold | LKVPPEERLI [CRB2, Q5IJ48]

biological target: T3, PDZRN3_1, Q9UPQ7; experiment: holdup assay; set-up: key: below the threshold = too weak to quantify, mostly under pKd 3.1 to 4; conditions: plain residues with an end cap or a label only (N-terminal biotin on a linker: ado-ado)

pKd | Binder
below the threshold | SGSLKLMTTV [DACT1, Q9NYF0]
below the threshold | LKVPPEERLI [CRB2, Q5IJ48]

biological target: MAGI2_4, Q86UL8; experiment: holdup assay; set-up: key: below the threshold = too weak to quantify, mostly under pKd 3.1 to 4; conditions: plain residues with an end cap or a label only (N-terminal biotin on a linker: ado-ado)
Sequence (Q86UL8 772-865): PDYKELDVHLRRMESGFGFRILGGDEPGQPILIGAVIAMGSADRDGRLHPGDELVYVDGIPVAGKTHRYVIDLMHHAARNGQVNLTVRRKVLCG

pKd | Binder
4.92 | SGSLKLMTTV [DACT1, Q9NYF0]
below the threshold | LKVPPEERLI [CRB2, Q5IJ48]

biological target: GORASP2, Q9H8Y8; experiment: holdup assay; set-up: key: below the threshold = too weak to quantify, mostly under pKd 3.1 to 4; conditions: plain residues with an end cap or a label only (N-terminal biotin on a linker: ado-ado)

pKd | Binder
4.32 | SGSLKLMTTV [DACT1, Q9NYF0]
3.62 | LKVPPEERLI [CRB2, Q5IJ48]

biological target: T4, MPP7, Q5T2T1; experiment: holdup assay; set-up: key: below the threshold = too weak to quantify, mostly under pKd 3.1 to 4; conditions: plain residues with an end cap or a label only (N-terminal biotin on a linker: ado-ado)

pKd | Binder
below the threshold | SGSLKLMTTV [DACT1, Q9NYF0]
below the threshold | LKVPPEERLI [CRB2, Q5IJ48]

biological target: T5, LIN7B, Q9HAP6; experiment: holdup assay; set-up: key: below the threshold = too weak to quantify, mostly under pKd 3.1 to 4; conditions: plain residues with an end cap or a label only (N-terminal biotin on a linker: ado-ado)

pKd | Binder
below the threshold | SGSLKLMTTV [DACT1, Q9NYF0]
below the threshold | LKVPPEERLI [CRB2, Q5IJ48]

biological target: MAGI2_3, Q86UL8; experiment: holdup assay; set-up: key: below the threshold = too weak to quantify, mostly under pKd 3.1 to 4; conditions: plain residues with an end cap or a label only (N-terminal biotin on a linker: ado-ado)
Sequence (Q86UL8 600-682): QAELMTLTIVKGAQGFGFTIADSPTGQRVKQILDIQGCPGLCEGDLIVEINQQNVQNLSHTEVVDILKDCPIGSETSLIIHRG

pKd | Binder
below the threshold | SGSLKLMTTV [DACT1, Q9NYF0]
below the threshold | LKVPPEERLI [CRB2, Q5IJ48]

biological target: GIPC2, Q8TF65; experiment: holdup assay; set-up: key: below the threshold = too weak to quantify, mostly under pKd 3.1 to 4; conditions: plain residues with an end cap or a label only (N-terminal biotin on a linker: ado-ado)
Sequence (Q8TF65 112-203): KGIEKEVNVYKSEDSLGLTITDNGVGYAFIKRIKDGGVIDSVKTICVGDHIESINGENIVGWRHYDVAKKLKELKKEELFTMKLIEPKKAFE

pKd | Binder
below the threshold | SGSLKLMTTV [DACT1, Q9NYF0]
below the threshold | LKVPPEERLI [CRB2, Q5IJ48]

biological target: GRID2IP_1, A4D2P6; experiment: holdup assay; set-up: key: below the threshold = too weak to quantify, mostly under pKd 3.1 to 4; conditions: plain residues with an end cap or a label only (N-terminal biotin on a linker: ado-ado)
Sequence (A4D2P6 1-87): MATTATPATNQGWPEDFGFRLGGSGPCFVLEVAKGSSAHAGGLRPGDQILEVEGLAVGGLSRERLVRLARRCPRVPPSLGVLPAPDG

pKd | Binder
below the threshold | SGSLKLMTTV [DACT1, Q9NYF0]
below the threshold | LKVPPEERLI [CRB2, Q5IJ48]

biological target: T6, LIN7C, Q9NUP9; experiment: holdup assay; set-up: key: below the threshold = too weak to quantify, mostly under pKd 3.1 to 4; conditions: plain residues with an end cap or a label only (N-terminal biotin on a linker: ado-ado)

pKd | Binder
below the threshold | SGSLKLMTTV [DACT1, Q9NYF0]
below the threshold | LKVPPEERLI [CRB2, Q5IJ48]

biological target: GORASP1, Q9BQQ3; experiment: holdup assay; set-up: key: below the threshold = too weak to quantify, mostly under pKd 3.1 to 4; conditions: plain residues with an end cap or a label only (N-terminal biotin on a linker: ado-ado)
Sequence (Q9BQQ3 1-208): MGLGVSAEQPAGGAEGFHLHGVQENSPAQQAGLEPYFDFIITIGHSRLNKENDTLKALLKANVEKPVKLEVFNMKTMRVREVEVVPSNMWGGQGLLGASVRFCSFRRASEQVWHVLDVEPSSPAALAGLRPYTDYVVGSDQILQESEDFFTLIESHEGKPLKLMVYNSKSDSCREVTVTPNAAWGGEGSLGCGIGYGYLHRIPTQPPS

pKd | Binder
3.56 | SGSLKLMTTV [DACT1, Q9NYF0]
below the threshold | LKVPPEERLI [CRB2, Q5IJ48]

biological target: LNX1_1, Q8TBB1; experiment: holdup assay; set-up: key: below the threshold = too weak to quantify, mostly under pKd 3.1 to 4; conditions: plain residues with an end cap or a label only (N-terminal biotin on a linker: ado-ado)
Sequence (Q8TBB1 261-371): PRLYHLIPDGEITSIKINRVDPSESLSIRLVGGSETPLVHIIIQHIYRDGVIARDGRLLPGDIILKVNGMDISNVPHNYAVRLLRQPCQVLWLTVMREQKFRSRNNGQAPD

pKd | Binder
4.04 | SGSLKLMTTV [DACT1, Q9NYF0]
below the threshold | LKVPPEERLI [CRB2, Q5IJ48]

biological target: Inadl_2, Q8NI35; experiment: holdup assay; set-up: key: below the threshold = too weak to quantify, mostly under pKd 3.1 to 4; conditions: plain residues with an end cap or a label only (N-terminal biotin on a linker: ado-ado)
Sequence (Q8NI35 238-335): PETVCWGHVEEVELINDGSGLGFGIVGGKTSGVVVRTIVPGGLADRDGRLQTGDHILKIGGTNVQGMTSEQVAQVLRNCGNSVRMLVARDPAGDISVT

pKd | Binder
below the threshold | SGSLKLMTTV [DACT1, Q9NYF0]
below the threshold | LKVPPEERLI [CRB2, Q5IJ48]

biological target: T7, DLG3_2, Q92796; experiment: holdup assay; set-up: key: below the threshold = too weak to quantify, mostly under pKd 3.1 to 4; conditions: plain residues with an end cap or a label only (N-terminal biotin on a linker: ado-ado)

pKd | Binder
5.12 | SGSLKLMTTV [DACT1, Q9NYF0]
below the threshold | LKVPPEERLI [CRB2, Q5IJ48]

biological target: CASK, O14936; experiment: holdup assay; set-up: key: below the threshold = too weak to quantify, mostly under pKd 3.1 to 4; conditions: plain residues with an end cap or a label only (N-terminal biotin on a linker: ado-ado)
Sequence (O14936 487-570): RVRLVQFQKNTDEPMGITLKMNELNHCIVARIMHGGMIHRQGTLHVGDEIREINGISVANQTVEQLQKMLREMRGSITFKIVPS

pKd | Binder
below the threshold | SGSLKLMTTV [DACT1, Q9NYF0]
below the threshold | LKVPPEERLI [CRB2, Q5IJ48]

biological target: T8, GRIP1_3, Q9Y3R0; experiment: holdup assay; set-up: key: below the threshold = too weak to quantify, mostly under pKd 3.1 to 4; conditions: plain residues with an end cap or a label only (N-terminal biotin on a linker: ado-ado)

pKd | Binder
below the threshold | SGSLKLMTTV [DACT1, Q9NYF0]
below the threshold | LKVPPEERLI [CRB2, Q5IJ48]

biological target: T9, DFNB31_2, Q9P202; experiment: holdup assay; set-up: key: below the threshold = too weak to quantify, mostly under pKd 3.1 to 4; conditions: plain residues with an end cap or a label only (N-terminal biotin on a linker: ado-ado)

pKd | Binder
below the threshold | SGSLKLMTTV [DACT1, Q9NYF0]
below the threshold | LKVPPEERLI [CRB2, Q5IJ48]

biological target: T10, GRIP1_4, Q9Y3R0; experiment: holdup assay; set-up: key: below the threshold = too weak to quantify, mostly under pKd 3.1 to 4; conditions: plain residues with an end cap or a label only (N-terminal biotin on a linker: ado-ado)

pKd | Binder
below the threshold | SGSLKLMTTV [DACT1, Q9NYF0]
below the threshold | LKVPPEERLI [CRB2, Q5IJ48]

biological target: DLG4_1, P78352; experiment: holdup assay; set-up: key: below the threshold = too weak to quantify, mostly under pKd 3.1 to 4; conditions: plain residues with an end cap or a label only (N-terminal biotin on a linker: ado-ado)
Sequence (P78352 62-152): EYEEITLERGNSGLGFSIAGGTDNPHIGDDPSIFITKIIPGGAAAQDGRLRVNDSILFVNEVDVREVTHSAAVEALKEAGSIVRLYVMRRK

pKd | Binder
5.02 | SGSLKLMTTV [DACT1, Q9NYF0]
below the threshold | LKVPPEERLI [CRB2, Q5IJ48]

biological target: GRIP2_5, Q9C0E4; experiment: holdup assay; set-up: key: below the threshold = too weak to quantify, mostly under pKd 3.1 to 4; conditions: plain residues with an end cap or a label only (N-terminal biotin on a linker: ado-ado)
Sequence (Q9C0E4 544-642): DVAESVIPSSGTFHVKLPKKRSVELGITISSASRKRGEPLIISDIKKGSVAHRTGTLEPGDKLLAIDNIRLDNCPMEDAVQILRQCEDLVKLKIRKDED

pKd | Binder
below the threshold | SGSLKLMTTV [DACT1, Q9NYF0]
below the threshold | LKVPPEERLI [CRB2, Q5IJ48]

biological target: FRMPD3, Q5JV73; experiment: holdup assay; set-up: key: below the threshold = too weak to quantify, mostly under pKd 3.1 to 4; conditions: plain residues with an end cap or a label only (N-terminal biotin on a linker: ado-ado)
Sequence (Q5JV73 12-100): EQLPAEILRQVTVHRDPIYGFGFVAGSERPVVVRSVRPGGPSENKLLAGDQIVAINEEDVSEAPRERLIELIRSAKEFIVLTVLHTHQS

pKd | Binder
below the threshold | SGSLKLMTTV [DACT1, Q9NYF0]
below the threshold | LKVPPEERLI [CRB2, Q5IJ48]

biological target: T11, APBA1_1, Q02410; experiment: holdup assay; set-up: key: below the threshold = too weak to quantify, mostly under pKd 3.1 to 4; conditions: plain residues with an end cap or a label only (N-terminal biotin on a linker: ado-ado)

pKd | Binder
below the threshold | SGSLKLMTTV [DACT1, Q9NYF0]
below the threshold | LKVPPEERLI [CRB2, Q5IJ48]
